Experiment [1] deals with T1, SARS-CoV-2 Spike protein (Receptor Binding Domain, RBD) (UniProt P0DTC2 331-524). Nature of the experiment: ELISA.
In experiment [2] the target is T1, SARS-CoV-2 Spike protein (Receptor …). The experiment can be described thus: ELISA. The source holds these as a separate data set.

EC50 and IC50 data for five molecules are collected here from patent US20210388065A1 (published 2021).

One may read the EC50 as the concentration needed to bring the measured effect to its halfway point. Lower therefore signals an effect from little substance. As a reminder, the IC50 is the concentration that gives 50% inhibition. Read a low IC50 as inhibition by little substance.

B1: 105-38 antibody (antibody, V domains shown)
VH: EVQLVESGGGLVQPGGSLRLSCAASGFTFSSYWMHWVRQAPGKGLVWVSRINSDGSSTSYADSVKGRFTISRDNAKNTLYLQMNSLRAEDTAVYYCARVQWLRGEFDYWGQGTLVTVSS
VL: DVVLTQPHSVSESPGKTVTISCTGSSGSIASNYVQWYQQRPGSAPTTVIYEDNQRPSGVPDRFSGSIDSSSNSASLTISGLKTEDEADYYCQSYDSSTDVVFGGGTELTVL
As to B1, a half-maximal response in experiment [1] (EC50) required 0.425 nM. In addition, the concentration for half-maximal inhibition (IC50) in experiment [2] stood at 0.598 nM.

B2: 414-3-2 antibody (antibody, V domains shown)
VH: QVQLVESGGGVVQPGRSLRLSCAASGFTFSSYAMHWVRQAPGKGLEWVALISYDGSNKYYADSVKGRFTISRDNSKNTLYLQMNSLRAEDTAVYYCARDGGGWFDPWGQGTLVTVSS
VL: QTVVTQPASVSGSPGQSITISCTGTSSDVGGYNYVSWYQQHPGKAPKLMIYDVSKRPSGVSNRFSGSKSGNTASLTISGLQAEDEADYYCSSYTSSSPWVFGGGTELTVL
As to B2, the concentration giving a half-maximal response (EC50) in experiment [1] amounted to 6.66 nM.

B3: 105-9 antibody (antibody, V domains shown)
VH: EVQLVESGGGLVKPGRSLRLSCTASGFTFGDYAMSWFRQAPGKGLEWVGFIRSKAYGWTTQYAASVKGRFTISRDDSKSIAYLQMKSLNSEDTAVYYCTRDPWGTTYFDYWGQGTLVTVSS
VL: EIVMTQSPATLSVSPGERATLSCRASQSVSSNLAWYQQKPGQGPRLLIYGASTRATGVPARFSGSGSGTDFTLTISSLQSEDFAIYYCQHYNNWFTFGQGTKVEIK
B3 displayed an EC50 in experiment [1] of 15.1 nM. In experiment [2], this molecule returned a 50% inhibitory concentration (IC50) of 25.2 nM.

B4: 414-1 antibody (antibody, V domains shown)
VH: QVQLVQSGAEVKKPGASVKVSCKASGYTFTSYYMHWVRQAPGQGLEWMGIINPSGGSTSYAQKFQGRVTMTRDTSTSTVYMELSSLRSEDTAVYYCARGALGCSSTSCYPNNFDYWGQGTLVTVSS
VL: not shown
In experiment [1], B4 yielded an EC50 of 1.26 nM. This molecule yielded an IC50 in experiment [2] of 6.68 nM.

B5: 105-43 antibody (antibody, V domains shown)
VH: EVQLVESGGGLVQPGGSLRLSCAASGFTFSSYDMHWVRQATGKGLEWISAIGTTGDIYYADSVKGRFTISRENAENSLYLQMNSLRAGDTAVYYCARYRGAFDVWGQGTMVTVSS
VL: EIVMTQSPVTLSLSPGERATLSCRASQSVGTYLAWYQQKPGQAPRLLIYDASNRATRIPARFSGSGSGTDFTLTISSLEPEDFAVYYCQQGSNWPLTFGGGTKVEIK
Consider B5, for which, in experiment [1], the EC50 came out at 12.1 nM. In experiment [2], this molecule yielded an IC50 of 59 nM.
